Literature values as cited in PMC4651712.

Biological target: PTHR1 (Homo sapiens) (UniProt Q03431)
Sequence of UniProt Q03431 (Q03431 27-593): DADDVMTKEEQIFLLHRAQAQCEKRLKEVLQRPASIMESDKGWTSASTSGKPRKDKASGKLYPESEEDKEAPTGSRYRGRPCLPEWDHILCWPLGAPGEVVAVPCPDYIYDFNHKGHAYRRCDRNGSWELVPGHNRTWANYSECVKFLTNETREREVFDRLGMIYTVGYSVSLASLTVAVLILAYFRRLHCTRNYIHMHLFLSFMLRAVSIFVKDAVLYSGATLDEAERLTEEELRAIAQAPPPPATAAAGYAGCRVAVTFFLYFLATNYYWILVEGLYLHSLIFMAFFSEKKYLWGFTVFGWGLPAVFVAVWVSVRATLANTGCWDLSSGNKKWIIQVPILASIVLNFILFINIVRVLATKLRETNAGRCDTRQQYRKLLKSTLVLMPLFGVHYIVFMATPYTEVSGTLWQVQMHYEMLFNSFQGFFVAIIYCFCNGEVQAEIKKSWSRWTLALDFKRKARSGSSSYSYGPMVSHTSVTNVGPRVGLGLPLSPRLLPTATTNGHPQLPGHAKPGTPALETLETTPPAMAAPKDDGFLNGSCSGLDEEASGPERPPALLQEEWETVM

- Kd: 1 nM
Substance: PTH (from UniProt P01270)
